Values of other authors, collected in patent US20240247069A1, “FGFR3 BINDING MOLECULES AND METHODS OF USE THEREOF” (Regeneron Pharmaceuticals, Inc., priority 2023, published 2024).
Where two headings read alike, the source gives them in different places.

B1: MS-Pro-28: anti-FGFR3 Ig-like domain 3 antibody of WO 2002/102972 A2; VH SEQ ID NO:38, VL SEQ ID NO:39 (antibody, V domains shown)
VH: QVQLVQSGAEVKKPGSSVKVSCKASGGTFSSYAISWVRQAPGQGLEWMGGIIPIFGTANYAQKFQGRVTITADESSTAYMELSSLRSEDTAVYYCARGGGWVSHGYYYLFDLWGQGTLVTVSS
VL: DIQMTQSPSSLSASVGDRVTITCRASQGISSYLAWYQQKPGKAPKLLIYAASSLQSGVPSRFSGSGSGTDFTLTISSLQPEDFAVYYCFQYGSIPPTFGQGTKVEIKRT
B2: MS-Pro-2: anti-FGFR3 Ig-like domain 2 antibody of WO 2002/102972 A2; VH SEQ ID NO:24, VL SEQ ID NO:25 (antibody, V domains shown)
VH: QVQLVQSGAEVKKPGASVKVSCKASGYTFTSYYMHWVRQAPGQGLEWMGWINPNSGGTNYAQKFQGRVTMTRDTSISTAYMELSSLRSEDTAVYYCARDFLGYEFDYWGQGTLVTVSS
VL: DIELTQPPSVSVAPGQTARISCSGDALGDKYASWYQQKPGQAPVLVIYDDSDRPSGIPERFSGSNSGNTATLTISGTQAEDEADYYCQSYDYSADYVFGGGTKLTVLGQ
B3: MS-Pro-29: anti-FGFR3 Ig-like domain 3 antibody of WO 2002/102972 A2; VH SEQ ID NO:40, VL SEQ ID NO:41 (antibody, V domains shown)
VH: QVQLVQSGAEVKKPGASVKVSCKASGYTFTSYYMHWVRQAPGQGLEWMGWINPNSGGTNYAQKFQGRVTMTRDTSISTAYMELSSLRSEDTAVYYCARTWQYSYFYYLDGGYYFDIWGQGTLVTVSS
VL: DIVLTQSPATLSLSPGERATLSCRASQSVSSSYLAWYQQKPGQAPRLLIYGASSRATGVPARFSGSGSGTDFTLTISSLEPEDFATYYCQQTNNAPVTFGQGTKVEIKRT

Tested on: FGFR3
[1] = Table T-3, exemplary FGFR3 D3 binding sequences from cited PCT publications
[2] = literature antibodies, sequences from cited PCT publications

Row | Molecule | Activity [1] | Activity [2]
1 | B1 | Antagonistic | Antagonistic
2 | B2 |  | Antagonistic
3 | B3 | Antagonistic | Antagonistic
